Data on three molecules can be found in patent publication US20110311517A1, “Antibodies and methods for treating estrogen receptor-associated diseases” (SHENOGEN PHARMA GROUP, LTD., priority 2009, published 2011).

Marks after values point to notes of the source that are not given here.

The target in data set [1] is T1, ERα36 (Homo sapiens, UniProt P03372).
T1 construct: made in house; host or cells: chemical synthesis (no expression host)
T1 sequence (P03372 284-310 isoform P03372-4 limits assumed): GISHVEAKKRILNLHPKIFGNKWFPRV
Briefly: ELISA of re-natured ScFv binding to ERα36. The procedure:
Streptavidin-coated 96-well plates were washed twice with PBS. Biotinylated ERα36 (final concentration of 20 μg/ml) was added into each testing well. The plates were incubated for 2 h at room temperature and washed three times with PBST. Re-natured ScFv samples (100 μl, S14A1r1, S24A2r2, S33A2r1, S41A3r3, S53A1r1, S66A1r1 and S72A2r1) were added into the testing wells respectively. Each ScFv was diluted five times in five gradients, and two parallel wells were loaded with each ScFv at each gradient. The plates were incubated at 37° C. for 1 h. The plates were washed three times with PBST, followed by addition of 100 μl anti-His-6 mouse monoclonal antibody (1:2000 dilution) per well and 1 h incubation at 37° C. The plates were washed three times with PBST, followed by addition of 100 μl goat anti-mouse-HRP (1:2500 dilution) per well and 1 h incubation at 37° C. The plates were washed six times with PBST, followed by addition of 100 μl OPD to develop under the protection from light. The reactions were terminated by adding 50 μl 2M H2SO4 to each well, and data were collected by microplate reader at 490 nm.
One positive control and three negative controls were performed in parallel. The positive control used rabbit anti-ER multi-clonal antibody serum in replacement of the ScFv re-natured sample and goat-anti-rabbit-HRP in replacement of goat-anti-mouse HRP.

Data set [2] in a line: Body weight and mortality of tumor-bearing nude mice during drug administration. It is filed as in vivo, BALB/c-nu nude mice. To be noted: mean ± SD. The source says:
(§1) The tested animals were grouped into 7 groups with 7 nude mice in each group. The seven groups are the negative control group treated with human IgG antibody (purchased from Beijing Biosynthesis Biotechnology Co. Ltd.), the positive control group treated with herceptin (provided by Beijing Shenogen pharma group), the multi-clonal antibody test group treated with rabbit anti-ERα36 multi-clonal antibody (provided by Wang, Zhao-Yi group, Creighton University), and the monoclonal antibody test groups treated with human anti-ERα36 monoclonal ScFv1, ScFv3, ScFv4 and ScFv7 respectively.
(§2) The test groups were administered with the same dose of rabbit anti-ERα36 multi-clonal antibody, human anti-ERα36 monoclonal ScFv1, ScFv3, ScFv4 and ScFv7 respectively (5 mg/kg, 100 μg/dose). The positive control group was administered with 5 mg/kg herceptin (100 μg/dose,), and the negative control group was administered with 5 mg/kg IgG antibody (100 μg/dose).
Human breast tumor BCAP-37 (estrogen receptor positive, provided by department of pharmacology, Institute of Materia Medica, Chinese Academy of Medical Sciences) was implanted subcutaneously into the armpit of the right forelimb of each tested nude mouse. Diethylstilbestrol was administered by gavage with the dose of 7 μg/day for 9 consecutive days after the implantation. On day 10, the mice were grouped into 7 groups and administered with the corresponding drug via intravenous injection, at a dosing interval of 3-4 days, for 6 consecutive doses. Every 3-4 days, the tumor-bearing mice were weighed and their tumor sizes were measured. Parameters were calculated using the following equations: […]

Data set [3] concerns Human breast tumor BCAP-37. Briefly: Tumor growth inhibition in BCAP-37 tumor-bearing nude mice. It is filed as in vivo, BALB/c-nu nude mice.
Source text: 49 female BALB/c-nu nude mice (provided by department of laboratory animal science, Peking University Health Science Center) were used in the studies.
as §1, §2
Human breast tumor BCAP-37 (estrogen receptor positive, provided by department of pharmacology, Institute of Materia Medica, Chinese Academy of Medical Sciences) was implanted subcutaneously into the armpit of the right forelimb of each tested nude mouse. Diethylstilbestrol was administered by gavage with the dose of 7 μg/day for 9 consecutive days after the implantation. On day 10, the mice were grouped into 7 groups and administered with the corresponding drug via intravenous injection, at a dosing interval of 3-4 days, for 6 consecutive doses. Every 3-4 days, the tumor-bearing mice were weighed and their tumor sizes were measured. Parameters were calculated using the following equations:
Volume of Tumor in animals of each group (VT): Vt=½×a×b^2, (Equation 1),
wherein a and b represent the length and width of the tumor, respectively;
wherein V0 is the volume of tumor before drug administration at the time of grouping, Vt is the volume of tumor at each measurement; the calculation method of V0 is the same as that of Vt;
wherein TRTV is the arithmetic mean of RTV of the test groups, and CRTV is the arithmetic mean of RTV of the negative control group.
The tumor bearing mice in each group were terminated after 21 days of observations and drug administrations. The tumors were then excised from the animals, photographed and weighed on 1/10000 analytical balance. The average tumor weights and tumor growth inhibition rates were calculated:
All experimental data were shown in mean±standard deviation. Groups were compared using statistical t test.

The mark [4] stands for this setting: ScFv concentration 235.00 μg/ml.
Where [5] appears, read: 5 mg/kg i.v. every 3-4 days, 6 doses.
Setting [6] is: ScFv concentration 170.00 μg/ml.
Where [7] appears, read: BCAP-37 nude mice, 5 mg/kg i.v. every 3-4 days, 6 doses, mean ± SD.
Where [8] appears, read: BCAP-37 nude mice, 5 mg/kg i.v. every 3-4 days, Vt relative to V0, mean ± SD.

B1: ScFv6: fully human anti-ERα36 single chain antibody, SEQ ID NO: 13 (protein)
scFv: EIVMTQSPGTLSLSPGERATLSCRASQSVDSNFLAWYQQRPGQAPRLLIYGVSSSATGIPDRFSGSGSGTDFTLSIDRLEPEDFAVYYCQQYGSSPTFGGGTKLEIKRSGGSTITSYNVYYTKLSSSGTQVQLQESGGGLVQPGRSLRLSCAASGFTFDDYAMHWVRQAPGKGLEWVSGISWNSGSIGYADSVKGRFTISRDNAKNSLYLQMNSLRAEDTAVYYCARSGDYGAFDIWGQGTMVTVSSAS
modifications: scFv6
Consider B1, for which the “OD490 Well1” value in data set [1] (ScFv concentration 0.38 μg/ml) amounted to 0.127; in data set [1] (ScFv concentration 1.90 μg/ml), 0.161; in data set [1] (ScFv concentration 9.40 μg/ml), 0.210; in data set [1] (ScFv concentration 47.00 μg/ml) it was 0.327; in data set [1] (setting [4]), 0.677. For the same molecule, the “OD490 Well2” value is reported as 0.129 in data set [1] (ScFv concentration 0.38 μg/ml); 0.162 in data set [1] (ScFv concentration 1.90 μg/ml); 0.209 in data set [1] (ScFv concentration 9.40 μg/ml); 0.326 in data set [1] (ScFv concentration 47.00 μg/ml); 0.664 in data set [1] (setting [4]).

B2: ScFv2: fully human anti-ERα36 single chain antibody, SEQ ID NO: 5 (protein)
scFv: QSALTQPASVSGSPGQSITISCTGTSSDVGGYNYVSWYQQHPGKAPKLMIYDVSKRPSGVSNRFSGSKSGNTASLTISGLQAEDEADYYCSSYTSSSTLVFGGGTKLTVLGSGGSTITSYNVYYTKLSSSGTQVQLLESGAEVKKPGASVKVSCKASGYTFTAYYMHWVRQAPGQGLEWMAMIDPSGSITSYAQKFQGRVTMSRDTSTSTLYMELSSLRSDDTAVYYCARDLKEGFSVPGAFDIWGQGTMVTVSSAS
modifications: scFv2
As for B2, the figures for the “OD490 Well1” value in data set [1] (ScFv concentration 1.40 μg/ml), in data set [1] (ScFv concentration 7.00 μg/ml) and in data set [1] (ScFv concentration 35.00 μg/ml) were 0.095, 0.138 and 0.343, respectively. The results for the “OD490 Well2” value in data set [1] (ScFv concentration 1.40 μg/ml), in data set [1] (ScFv concentration 7.00 μg/ml) and in data set [1] (ScFv concentration 35.00 μg/ml) were 0.096, 0.121 and 0.359, respectively.

B3: ScFv3: fully human anti-ERα36 single chain antibody, SEQ ID NO: 7 (protein)
scFv: QSVLTQPASVSGSPGQSITISCTGTSSDVGGYNYVSWYQQHPGKAPKLMIYDVSKRPSGVSNRFSGSKSGNTASLTISGLQAEDEADYYCSSYTSSSTLVFGGGTKLTVLGSGGSTITSYNVYYTKLSSSGTEVQLVQSGGGVAQPGRSLRLSCAASGITFNSYGMHWVRQAPGKGLEWVAVMPYDGSNEYYADSVKGRFTISRDNSKNTLYLQMNSLRAEDTAVYYCAKGSGMVQLWADAFDVWGQGTMVTVSSAS
modifications: scFv3
B3: in data set [2] (setting [5]), the “Body weights of tumor-bearing nude mice, Day 4 after drug administration” value was 20.28 ± 0.54; the “Body weights of tumor-bearing nude mice, Day 7 after drug administration” value was determined as 20.75 ± 0.31; the “Body weights of tumor-bearing nude mice, Day 11 after drug administration” value is 21.24 ± 0.55; the “Body weights of tumor-bearing nude mice, Day 14 after drug administration” value is reported as 22.04 ± 0.59. Besides, in data set [2] (setting [5]), the “Body weights of tumor-bearing nude mice, Day 18 after drug administration” value is 23.38 ± 0.46 and the “Body weights of tumor-bearing nude mice, Day 21 after drug administration” value worked out at 23.62 ± 0.36. The “body weight when grouped” value in data set [2] (baseline at the time of grouping) is 19.94 ± 0.81. Besides, the “Body weights of tumor-bearing nude mice, Before drug administration” value in data set [2] (baseline, 5 mg/kg i.v. every 3-4 days, 6 doses) amounted to 19.94 ± 0.81. In data set [1] (ScFv concentration 1.44 μg/ml), the “OD490 Well1” value came out at 0.242 and the “OD490 Well2” value is recorded as 0.037. In addition, in data set [1] (ScFv concentration 7.20 μg/ml), the “OD490 Well1” value stood at 0.290 and the “OD490 Well2” value turned out to be 0.229. In addition, in data set [1] (ScFv concentration 36.00 μg/ml), the “OD490 Well1” value was found to be 0.448 and the “OD490 Well2” value is reported as 0.344. Besides, in data set [1] (setting [6]), the “OD490 Well1” value was 1.459 and the “OD490 Well2” value is given as 1.349. Further, in data set [3] (setting [7]), the “Tumor volumes, Day 4 after drug administration” value is given as 171.91 ± 73.68^b mm^3; the “Tumor volumes, Day 7 after drug administration” value is 302.93 ± 100.01^b mm^3; the “Tumor volumes, Day 11 after drug administration” value is 1442.70 ± 406.32^b mm^3; the “Tumor volumes, Day 14 after drug administration” value is on record as 1993.02 ± 405.84^b mm^3. Further, in data set [3] (setting [7]), the “Tumor volumes, Day 18 after drug administration” value is on record as 2859.65 ± 427.16^b mm^3 and the “Tumor volumes, Day 21 after drug administration” value is 3324.97 ± 460.89^b mm^3. In addition, in data set [3] (setting [8]), the “relative tumor volume (RTV), Day 4” value is listed as 3.61 ± 2.03^b; the “relative tumor volume (RTV), Day 7” value is on record as 6.31 ± 2.88^b; the “relative tumor volume (RTV), Day 11” value is given as 30.44 ± 14.49^b; the “relative tumor volume (RTV), Day 14” value was 41.87 ± 16.82^b. In addition, in data set [3] (setting [8]), the “relative tumor volume (RTV), Day 18” value is 59.61 ± 20.46^b and the “relative tumor volume (RTV), Day 21” value is listed as 69.18 ± 22.85^b. For the same molecule, the “inhibition of tumor growth in tumor-bearing mice (in words)” value in data set [3] (BCAP-37 nude mice, 5 mg/kg i.v., 6 doses) is “strongest inhibitory activities”. Besides, in data set [3] (baseline, BCAP-37 nude mice, 5 mg/kg i.v. every 3-4 days, 6 doses, mean ± SD), the “Tumor volumes, Before drug administration” value is listed as 50.51 ± 10.12 mm^3. The “tumor sizes at pathological examination (in words)” value in data set [3] (excised tumors after 21 days) was “the smallest among the mono-clonal antibody groups”. In data set [3] (excised tumors after 21 days, BCAP-37 nude mice, 5 mg/kg i.v., 6 doses, mean ± SD), the “Tumor weight” value turned out to be 2.738 ± 0.344 g. For the same molecule, the “Tumor growth inhibition rate (%)” value in data set [3] (from average tumor weights after 21 days vs negative control, 5 mg/kg i.v., 6 doses) was found to be 59.76%.
